Assay results from the nanobody polyreactivity screen of Harvey et al. (2022).

Test: yeast display, Sf9 membrane polyspecificity reagent, FACS + sequencing; frameworks hold sequencing errors
In short: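 Nanobodies from a synthetic yeast display library (Saccharomyces cerevisiae BJ5465), induced 36–48 hours with galactose, were stained 1 hour at 4 °C with 10% biotinylated, detergent-solubilized Sf9 membrane reagent, enriched on streptavidin microbeads, then FACS-sorted. Anti-HA (expression) and streptavidin (reagent binding) fluorescence set low and high (top ~1%) gates. Polyreactivity labels come from the gate of origin. Genes were colony-PCR amplified, MiSeq 2 × 250 sequenced and filtered by CDR length.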

Sequence	polyreactivity (PSR sort gate)
QVQLVESAGGLVQAGGSLRLSCDASISSINAMGWYRQAPGKEREMVAAIRWSGSSTYYADSVKGRFTISRDNAKNTVYLQMNSLKPEDTAVYYCAARWYARSLTRFNYWGQGTQVTVSS	high polyreactivity
QVQLVESAGGLVQAGGSLRLSCYASGRIFPAYAMGWYRQAPGKERELVASIRRGGITYADSVKGRFTISRDNAKNTVYLQMNSLKPEDTAVYYCNADSRGWGYHMDYWGQGTQVTVSS	low polyreactivity
QVQLVESAGGLVQAGGSLSLSCAASGILVYNAMGWYRQAPGKQRELVAAISARGGRTYYADSVKWRFTISRDNAKNTVYLQMNSLKTEDTAVSYCATLETTGVNYWGQGTQVTVSS	high polyreactivity
QVQLVESAGGLVQAGGSLSLSCAASGLTFPWYAMGWYRQAPGKERELVAAISSSSGSTYYADSVKGRFTISRDNAKNTVYLQMNSLKPEDTAVYYCAAGYPGGHYDYWGQGTQVTVSS	high polyreactivity
QVQLVESAGGLVQAGGSLSLSCAATGITFPYVMGWYRQAPGKQRELVAAISRTGTSTYYADSVKGRFTISRDNAKNTVYLQMNSLKPEDTAVYYCAARTQTQVYPAYGYWGQGTQVTVSS	high polyreactivity
QVQLVESAGGLVQAGGTLRLSCAATGRIVYLNAMGWYRQAPGKERELVAAISGSTGSTYYADSVKGRFTISRDNAKNTVYLQMMSLKPEDTAVYYCNAGGVYDEFNYWGQGTQVTVSS	low polyreactivity
QVQLVESAGGLVQAGVSLRLSCAASGSIYPGSAMRWYRQAPGNERELVAAITFGGGITYYADSVKGRFTISRDNAKYTVYLQMNSLKPEDSAVYYCAAKSPRILLDYWGQGTQVTVSS	low polyreactivity
QVQLVESAGGVVQAGGSLRLSCAPSGRTFYPYVMGCYRTAPGKERELVARIRWSGSSTYYADSEKGRFTISRDNAKNTVYLQMNSLKPEDTAVYYCNARPSWYVFGSSVHSGMGYWGQGTQVTVSS	high polyreactivity
QVQLVESAGRLVQAGGSLRLSCDASGSTFKGYPIGWYRQAPGKERELVAAISRRGGSTYYADSVKGRFTISRDNAKNTVYLQMNSLKPEDTAVYYCAKEGQLRYDYWGQGTQVTVSS	high polyreactivity
QVQLVESARGLVKAGGSLLLSCAAYVSIFNHYAMGWYRQAPGKESELVARITNRSGNTYYADSVKGRFTISRDNAKNTGYLQLNSLKGEDTEVYYCAATKSLGRYNMDYWGPGTQVTVSS	low polyreactivity
QVQLVESAVGLVKAGGSHRLSCAASASTFYLNARGWYRQAPGKEREFVAAIRGGGTSKRYADSVKGRFTISRDNATNTVYLQMNILKPEDSAVYYCAAGRGGHRYKVGYWGLGTQVTVSS	high polyreactivity
QVQLVESAVGLVQAGGSLRLSCAASGTTFVRYAMGWYRQAPGKEREFVAASSKSGGSTYYADSVKGRFTISRDNAKNPVYLQMNSLKPEDTAVYYCATRTTYGQSGSAGPRPSNYWGQGTQVTVSS	low polyreactivity
QVQLVESCGCLVQAGGSLRFSCAASGNTFRRNVMGWYRQAPGKEREMVAAINRGGSTTYADSVKGRFTISRDNAKNTVYLQMNSLKPEDTAVYYFNDRTLFKWRHGHYYAYDYWGQGTQVTVSS	high polyreactivity
QVQLVESCGGIVQAGGSLRLSCAASGSILRSNSMGTYRQAPGKERELVAAISSRGGSTYYADSVKGRFTISRDNAKNTVYLQMNSLNPEDTAVYYCNKASYTVISYDEYDYWGQVTQVTVSS	high polyreactivity
QVQLVESCGGLDQAGGSLRLSCAASGRIFYAYAMGWYRQARGKERELVAAITSSGGRTYYADSVKGRFTISRDNAKNTVYLQMNSLKPEDTAVYYCAAYDYWGQGTQVTVSS	low polyreactivity
QVQLVESCGGLVQAGASLRLSCAASGSTFYDNVMGWYRQAPWKERELVAAITWRGGSTYADSVKGRFTISRDNAKNTVYLQMNSLKPEDTAVYYCNADDDYQQYLGDYWGQGTQVTVSS	low polyreactivity
QVQLVESCGGLVQAGGILRLSCAAYGRTFYKNAIGWYTQAPGKERELVAAMSSRGGRTTYADSVKGRFTISRDNAKYTVYLQMTSLKPEDTAVYYCAADWAQVYHGTPKYYYWGQGTQVTVSS	high polyreactivity
QVQLVESCGGLVQAGGSLRLRCAASGRIIRKYVMAWYRQAPGKERELVAAITGGGSTYYADSVKGRFTISRDNAKNTVYFQKNSLKPEDTAVYYCAADRQSAAHRLWGSEYGYWGQGTQVTVSS	high polyreactivity
QVQLVESCGGLVQAGGSLRLRCAASGSIFSGYVMVWYRPAPGKERELVAAISGSGGSTYYADSVKGRFTISRYNAKNTVYLQMNSLKPEDTAVYYCNVDRSPTHIVGYGYWGQGSQVTVSS	low polyreactivity
QVQLVESCGGLVQAGGSLRLSCAASGFTFLGYAMGWYRQAPGKERELVAAITSGDSTDYADSVKGRFTISRDNAKNTVYLQMNSLKPEDTAVYYCNAELGSAYEYWGQGTQVTVSS	low polyreactivity
QVQLVESCGGLVQAGGSLRLSCAASGFTFVYYAMGWYRKAPGKEREFVAAISKSGGSTYYADSVKGRFTISRDNAKNTVYLQMNSLKPEDTAVYYCAARSYQGTSSGRVTRRYDYWGQGTQVTVSS	high polyreactivity

Sequence	polyreactivity (PSR sort gate)
QVQLVESCGGLVQAGGSLRLSCAASGLIFIYNAMGWYRQAPGKERELVAAISRSGGRTYYADSVKGLFTISRDNAKNTVYVQMNSLKPEDTEVYYCATDASTYAYYGGDYWGQGTQVTVSS	low polyreactivity
QVQLVESCGGLVQAGGSLRLSCAASGRIFNHNAMGWYRQAPGKEMKLVAAISWRGGSTYYADSVKGRFTISRYNAKNTVYLQRNSLKPEDTAVYYCATKPSPITYKLDYWGQGTQVTVSS	high polyreactivity
QVQLVESCGGLVQAGGSLRLSCAASGRIFPYNAMGWYRQAPGKERELVAAIDWRDNTYYADSVKGRFTISRDNAKNTVYLQMNSLKPEDTAVYYCNVDYTDYFLNKYDYWGQGTQVTVSS	low polyreactivity
QVQLVESCGGLVQAGGSLRLSCAASGRTFGYYAMGWYRQAPGNERELVAAISRGGRTNYADSVKGRFTISRDNAKNTVYLQMNSLKPEDTAVYYCAKSGTIPRYTASYSLLDYWGPGTQVTVSS	low polyreactivity
QVQLVESCGGLVQAGGSLRLSCAASGSTFTVNAMGWNRQAPVKERELVDAITQSRGSTSYADSVKGRFTISRDNAKNTVYVQMNSLKPEDTAVYYCNAQRGVRSRKSYRRQFDYWGHGTQVTVSS	low polyreactivity
QVQLVESCGGLVQAGGSLRLSCAATGSTIRTYAMGWYRQAPGTERELVAAISRSGGRTYYADSVKGRFTISRDNAKNTVYLQMNSLTPEDTAVYYCAKVSQRRVDTSDYDYWGQGTQVTVSS	high polyreactivity
QVQLVESCGGLVQAGGSLRLSCAGSGSTFVYYAMGWSRQAPGQERELVAAISRSGGSTYYADSVKGRFTISRDNAKNTVYLQMHSLKPEDTAVYYCNKYAIFPAYRYPRSDYWGQGTQVTVSS	high polyreactivity
QVQLVESCGGLVQAGGSLRLSFAASGSTFGYYTMGWYRQAPGKERELVAAISWSGGSTYYADSVKGRFTISRDNAKNTVYLQMNSLKPEDTAVYFCAALGYTYKYYSYYWGQGTQVTVSS	high polyreactivity
QVQLVESCGGLVQAGGSLRLTCAASGSTFTIYAMGWYRQAPGKERELVAVISSSGGSTYYADSVKGRFTISRDYAKNTVYLQMNSLKPEDTAVYYCAADTRYFGGYLTLYYWGQGTQVTVSS	low polyreactivity
QVQLVESCGGLVQARGSLRLSCAASGRTIDSYAMGWYRQAPGKERELVAAITSGVSTYYADSVKGRITISRDNATNTVYLQMNSLQPEDTSVYYCARKHAIWRGYDFWGQGTQVTVSS	low polyreactivity
QVQLVESCGGLVQAVGSLRLSCAASGIIIGYNAIGWYILAPGKEREFVAAISGYGGSTRYADSVKGRFTISRDYGKNSVYLQMNSLKPEDTAVYYCAARSRYCYITFDYWGQGTQVTVSS	high polyreactivity
QVQLVESFGGLVHAGGSLRLSCAASGFTFTSYTMGWYRQAPGKEREMVAAITNTGGSTYYADSVKGRFTISRDNAKNYVYLQMNSLKQEDTWVYYCAARTHIYGKFWRFYWGQGTQVTVSS	low polyreactivity
QVQLVESGAALVQAGGSLRLSCAASGFTFFTYAMGWYRQATGKDSELVAAITSSGGSTYYADSVKGRFTISRDNAKNTVYLQMNSLNPEDTAVYDCAASVYFWYDYWGQGTQGTVSS	high polyreactivity
QVQLVESGAGIVQAGGSLRLCCAATGITFDFYAMGWYTQAPGKERELVAAISYSGTSTSYADSVKGRFTISRDNAKNTVYLQMNSLKPEDTAVYYCNARIGWTHSYYELDYWGQGTQVTVSS	low polyreactivity
QVQLVESGAGLVHAGGSLRFSCAPSGIIIYRYAMGWYRQAPGKERELVAGISQRGGNTYYADSVKGRFTISRDNEKNTVYLQMYSLKPEDTAVYYCAAPYYGTRTNNRHEYWGLGTQVTVSS	high polyreactivity
QVQLVESGAGLVHAGGSLRLSCAASGSTFSPYAMGWYRQAPGKESELVAAITSSGGSTYYADSVKGRFTISRDNAKNTVYLQMISLKPEDTALYYCAAVGYYTSTYDLYDYYYWGQGTHVTVSS	low polyreactivity
QVQLVESGAGLVKAGGILRLSCAASGFTFYGYAMGWYRQAPGKERELVAAITFRGDRTYYADSVKGRFTISRDNAKNTVYLQMNSLIPEDTAVYYCAAERPSGWYSYLSLYIVRRGYWGQGTQVSVSS	low polyreactivity
QVQLVESGAGLVKAGGSLRLSCAASGFSFQRNAMGWYRQAPGKERELVAAINRSGGRTYYADSVKGRFTISRDNAKYTVYLQMNSLKPEDTAVYYCAADSTYEYYFWGQGTQVTVSS	high polyreactivity
QVQLVESGAGLVLPGGSLRLSCAASGNTTSTNAMGWYRQAPGKERVAALTWSTGSTYYEDSVKVRFTISRDNAKNTVYLQMNSLKQDETAVYYCAKQTYVSEYGLATAAWGFDYWGQGTQVTVSS	low polyreactivity
QVQLVESGAGLVQAAGSLSLSCASAGSTFFLYAMGRYRRAHGKVREFVAAISDTGGSTYYADSVKGRFTISRDNATNTVYLQMISLKPEDTACYYCNRVVASFYRSRYDYWGQGTQVTVSS	low polyreactivity
